Experiment in all cases: cell_activity
Data set [1] has as its system Sleeping Beauty transposase SB11 (synthetic). The settings on record: primary human CD3+ T cells, mean; unit inferred from figure legend.
Data set [2] deals with T1, TcBuster V377T/E469K V377T,E469K (Tribolium castaneum).
T1 sequence: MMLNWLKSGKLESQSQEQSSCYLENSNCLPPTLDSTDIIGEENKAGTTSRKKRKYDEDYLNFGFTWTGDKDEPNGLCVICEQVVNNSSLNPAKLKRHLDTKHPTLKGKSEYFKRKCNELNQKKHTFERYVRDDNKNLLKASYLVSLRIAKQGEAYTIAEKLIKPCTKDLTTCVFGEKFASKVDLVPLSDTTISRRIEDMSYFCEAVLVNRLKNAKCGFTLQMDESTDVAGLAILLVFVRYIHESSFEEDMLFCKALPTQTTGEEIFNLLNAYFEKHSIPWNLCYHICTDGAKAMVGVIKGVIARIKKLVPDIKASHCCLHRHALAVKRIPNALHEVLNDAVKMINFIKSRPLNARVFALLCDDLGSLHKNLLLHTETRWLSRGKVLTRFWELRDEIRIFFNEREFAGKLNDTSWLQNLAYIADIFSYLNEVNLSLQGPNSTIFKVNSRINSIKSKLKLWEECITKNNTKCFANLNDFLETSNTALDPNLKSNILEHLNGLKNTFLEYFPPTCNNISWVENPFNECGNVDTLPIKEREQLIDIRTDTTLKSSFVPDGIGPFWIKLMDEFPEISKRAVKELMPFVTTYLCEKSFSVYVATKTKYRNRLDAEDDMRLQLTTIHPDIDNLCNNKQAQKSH
The settings on record: primary human CD3+ T cells, mean; nearly 2-fold over WT at day 14; unit inferred from figure legend.

Data set [3] deals with T2, TcBuster D189A/V377T/E469K (Tribolium castaneum).
T2 sequence: T1 sequence with D189A
As to conditions: primary human CD3+ T cells, mean; nearly 2-fold over WT at day 14; unit inferred from figure legend.

Substitutions are numbered along the chain they refer to.

For the substance “mini-circle transposon with TcBuster and Sleeping Beauty IR/DRs, GFP cargo”, the activity in data set [1] amounted to 8.4 % GFP+ cells; in data set [2], 20.2 % GFP+ cells; in data set [3], 24.1 % GFP+ cells.
